This is an account of results in publication PMC9335043, “The novel ZmTCP7 transcription factor targets AGPase-encoding gene ZmBt2 to regulate storage starch accumulation in maize”.

Data set [1] concerns the target T1, GST-ZmTCP7 (Zea mays, UniProt B4FHV6 1-275).
T1 sequence: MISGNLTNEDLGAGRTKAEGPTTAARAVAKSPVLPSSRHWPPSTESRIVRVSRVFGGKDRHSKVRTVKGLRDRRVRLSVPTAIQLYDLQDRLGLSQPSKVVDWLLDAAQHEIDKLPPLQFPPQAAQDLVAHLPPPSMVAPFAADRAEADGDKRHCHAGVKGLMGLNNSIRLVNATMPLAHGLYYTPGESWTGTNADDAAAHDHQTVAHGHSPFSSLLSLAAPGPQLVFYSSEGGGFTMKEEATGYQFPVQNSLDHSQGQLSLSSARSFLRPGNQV
Description: competition; unlabeled competitor vs PWT: considerably reduced at 50x, almost completely removed at 100x; LightShift chemiluminescent EMSA kit buffer (composition and pH not stated), 25 C, 30 min, 8% PAGE. Particulars: protein: recombinant; tags: N-terminal GST (pGEX-6-1); chain copies: 2.

Data set [2] concerns the target T1, GST-ZmTCP7. Description: EMSA; LightShift chemiluminescent EMSA kit buffer (composition and pH not stated), 25 C, 30 min, 8% PAGE. Particulars: protein: recombinant; tags: N-terminal GST (pGEX-6-1); chain copies: 2; label: 3' biotin.

B1: unlabeled WT 30 bp competitor (dsDNA)
DNA 1: CACACTTTAGAACCCCACGCCTTTACCTAA
DNA 2: TTAGGTAAAGGCGTGGGGTTCTAAAGTGTG
In the case of B1, the binding result in the data set with GST-ZmTCP7 [1] is “binds”.

B2: PMu (mutated ZmBt2 promoter 30 bp probe) (dsDNA)
DNA 1: CACACTTTAGAAAAAACAGCCTTTACCTAA
DNA 2: TTAGGTAAAGGCTGTTTTTTCTAAAGTGTG
On to B2, for which the binding result with GST-ZmTCP7 [2] is “no binding”.

B3: PWT (ZmBt2 promoter 30 bp probe) (dsDNA)
DNA 1: CACACTTTAGAACCCCACGCCTTTACCTAA
DNA 2: TTAGGTAAAGGCGTGGGGTTCTAAAGTGTG
With B3, the binding result in the data set with GST-ZmTCP7 [2] was “binds”.
